Patent publication CN116199778A (SHANGHAI JUNSHI BIOSCIENCES CO LTD; JUNMENG BIOSCIENCES CO …, dated 2023)

T1: 含有His标签的鼠4-1BB (mouse 4-1BB with His tag, Sino Biological 50811-M08H) (mouse, UniProt P20334 24-187)
T1 construct: Bought protein; Coated on the ELISA plate at 1.0 ug/mL; not shown: His tag
T1 sequence (looked up): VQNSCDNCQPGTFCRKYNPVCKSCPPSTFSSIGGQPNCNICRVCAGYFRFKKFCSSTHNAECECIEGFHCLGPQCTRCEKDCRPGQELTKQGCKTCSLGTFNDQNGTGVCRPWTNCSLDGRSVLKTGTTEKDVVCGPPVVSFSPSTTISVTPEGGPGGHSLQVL


Key:
[1] = biological target: 4-1BB on the surface of Jurkat NFKB 4-1BB cells (UniProt Q07011 24-255, limits assumed); experiment: cell-based or functional assay
[2] = biological target: T1, 含有His标签的鼠4-1BB (mouse 4-1BB with His …); experiment: ELISA, His-tagged mouse 4-1BB coated at 1.0 ug/mL, antibody titrated, anti-human IgG4 Fc HRP detection

Chain of 4-1BB on the surface of Jurkat NFKB 4-1BB cells (Q07011 24-255 limits assumed): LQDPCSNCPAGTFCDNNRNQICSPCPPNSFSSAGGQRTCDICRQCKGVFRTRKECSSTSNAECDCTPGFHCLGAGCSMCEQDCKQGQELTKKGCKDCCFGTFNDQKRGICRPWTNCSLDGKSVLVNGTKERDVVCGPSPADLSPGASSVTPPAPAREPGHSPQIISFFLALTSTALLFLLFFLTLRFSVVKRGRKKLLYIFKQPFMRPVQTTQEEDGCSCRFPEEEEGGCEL

| Binder | EC50, luciferase reporter (RLU), Raji / Jurkat NFKB 4-1BB two-cell system [1] | EC50, luciferase reporter (RLU), Raji / Jurkat NFKB (4-1BB low expression) two-cell system [1] | EC50, luciferase reporter (RLU), THP-1 / Jurkat NFKB 4-1BB two-cell system [1] | binding result [2] |
| --- | --- | --- | --- | --- |
| JS011-phage3 (antibody, V domains shown) VH: not shown VL: ELELTQPPSVSVSPGQTASITCSADKLGDKYASWYQQKPGQSPVLVLYEDSKRPSGIPERISGSNSGNTATLTIRGTQPMDEADYYCQTWDTNTVLFGGGTRLTVL | 9.45 µg/mL | 9.45 µg/mL | 0.00664 µg/mL |  |
| JS011-phage6 (antibody, V domains shown) VH: QVQLVQSGAEVKKPGASVKVSCKASGYTFTGQYIHWARQAPGQGLEWMGWINPNSGGTNYAQKFQGRVTMTRDTSISTAYMELSRLRSDDTAVYYCARDKAGADYWGQGTLVTVSS VL: ELALTQPPSVSGSPGQSITISCTGTSSDIGGYDYVSWYQQYPGKAPKLMISGVSNRPSGVSNRFSGSKSGNTASLIISGLQAEDEGDYYCSSYTSRSTRWVFGGGTKLTVL | 2.71 µg/mL |  | 0.283 µg/mL | no binding (tested: 1μg/ml起始) |
| Urelumab (antibody, V domains shown) VH: QVQLQQWGAGLLKPSETLSLTCAVYGGSFSGYYWSWIRQSPEKGLEWIGEINHGGYVTYNPSLESRVTISVDTSKNQFSLKLSSVTAADTAVYYCARDYGPGNYDWYFDLWGRGTLVTVSS VL: EIVLTQSPATLSLSPGERATLSCRASQSVSSYLAWYQQKPGQAPRLLIYDASNRATGIPARFSGSGSGTDFTLTISSLEPEDFAVYYCQQRSNWPPALTFGGGTKVEIK | 7.24 µg/mL | 86 µg/mL | 219 µg/mL |  |
